{"source": "paper doi:10.1101/721969", "molecular_target": "Ib-pore (heptameric translocation channel of Clostridium perfringens iota toxin component Ib, after (Clostridium perfringens))", "test": "cryo-EM structure"}
{"substance": "Ib-pore (heptameric translocation channel of Clostridium perfringens iota toxin component Ib, after (natural protein)", "values": [{"measurement": "stoichiometry N", "result": 7}]}
